These results are taken from patent publication US20230137032A1 (GlaxoSmithKline, published 2023).

For test [1], the target named is T1, cyno BCMA expressed on HEK293 cells (cyno, UniProt A0A2K5UD97 1-183).
T1 construct: whole, on cells; also called cyno BCMA HEK293
The test is described as follows: FMAT cell binding on HEK293 cells transfected with cyno BCMA, anti-human IgG FMAT Blue detection. On the procedure:
Cryopreserved transfected human, cyno BCMA and mock transfected HEK293 cells were recovered from LN2 storage. […] The assay plates were left for a minimum of 90 minutes before the result was read on the ABI8200 (FMAT) plate reader.

Test [2] concerns the target T2, human BCMA expressed on cells (human, UniProt Q02223 1-184).
T2 construct: whole, on cells; also called human BCMA HEK293; ARH77-hBCMA 10B5 BCMA expressing transfectant cells
T2 sequence (looked up): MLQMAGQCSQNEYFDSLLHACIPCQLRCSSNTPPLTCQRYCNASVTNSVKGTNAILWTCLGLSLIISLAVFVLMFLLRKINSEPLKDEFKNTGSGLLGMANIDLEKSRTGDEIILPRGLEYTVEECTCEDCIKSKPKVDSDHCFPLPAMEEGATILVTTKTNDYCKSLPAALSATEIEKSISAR
The test is described as follows: FACS on H929 cells, PE anti-human IgG, MFI. On the procedure:
Cells were then washed with FACS buffer (PBS+0.5% BSA+0.1% sodium azide) to remove unbound antibody. Cells were incubated with a secondary PE labelled anti-human IgG antibody for 15 minutes at RT and then washed with FACS buffer to remove unbound antibody. Cells were analysed by FACS and mean fluorescence intensity (MFI) values measured to determine binding.

Test [3] deals with T3, recombinant human BCMA Fc 4-53 (human).
T3 construct: also called Human BCMA CD33-hBCMA ECD (4-53) TEV-Fc; recombinant BCMA
The test is described as follows: ELISA, neutralisation of ligand binding to plate-coated BCMA Fc 4-53; competitor APRIL; competitor APRIL. The method, then:
(§1) 96 well flat bottomed plates were coated overnight with 1 μg/mL solution of recombinant human BCMA Fc 4-53 in PBS. Following a wash step using 0.05% TWEEN20, plates were blocked with 2% Bovine Serum Albumin solution in PBS for 1 hour at room temperature. […] 40 μL of 2% BSA was added to the relevant control wells. […] Equivalent volume of 2% BSA was added to the relevant control wells. Plates were allowed to incubate for 2 hours at room temperature, after which they were washed as before. […] Following a wash step, 50 µL of a 1:4000 dilution of Streptavidin-HRP (Amersham RPN4401) was added to each well and incubated for 30 minutes at room temperature. The wash process was repeated again followed by the addition of […] of Tetramethylbenzidine substrate solution (T8665, Sigma) into each well. Plates were incubated for 20-25 minutes at room temperature, wrapped in foil. The reaction was stopped with the addition of […] of 1M H₂SO₄. Optical density was determined at 450 nm using Spectromax reader.

Test [4] has as its target T3, recombinant human BCMA Fc 4-53. The test is described as follows: competition ELISA: binding of recombinant human APRIL to coated recombinant human BCMA Fc 4-53, biotinylated anti-APRIL and streptavidin-HRP, % of control. On the procedure:
as §1

Test [5] addresses T4, recombinant cyno BCMA, in house material (cyno, UniProt A0A2K5UD97 4-52).
T4 construct: also called Cyno in house BCMA
The test is described as follows: ProteOn SPR run 1, antibody captured on Protein A, 25C.

The target of test [6] is T4, recombinant cyno BCMA, in house material. Kind of test: ProteOn SPR run 2, antibody captured on Protein A, 25C.
The target in test [7] is T5, recombinant human BCMA, commercial (US Biological, B0410) (human, UniProt Q02223 5-54, limits assumed).
T5 construct: also called commercial human BCMA; Human commercial BCMA
T5 chain (looked up): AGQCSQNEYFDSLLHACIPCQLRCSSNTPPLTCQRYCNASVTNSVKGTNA
The description is as above.

The target of test [8] is T5, recombinant human BCMA, commercial (US …). Kind of test: Biacore T100, antibody captured on Protein A, 37C, experiment 1. On the procedure: Protein A was immobilised on a CMS chip (GE Healthcare, Cat No: BR-1005-30) by primary amine coupling and this surface was then used to capture the antibody molecules. Recombinant human BCMA (US Biological, B0410) was used as analyte at 256 nM, 64 nM, 16 nM, 4 nM and 1 nM. Regeneration of the capture surface was carried out using 50 mM NaOH. All binding curves were double referenced with a buffer injection (i.e. 0 nM) the data was fitted to the using the 1:1 model inherent to T100 evaluation software. The run was carried out at 25° C. and 37° C. for experiment 1 and only 37° C. for experiment 2 using HBS-EP as the running buffer.

For test [9], the target named is T3, recombinant human BCMA Fc 4-53. The test is described as follows: competition ELISA: binding of recombinant human BAFF to coated recombinant human BCMA Fc 4-53, biotinylated anti-BAFF and streptavidin-HRP, % of control. On the procedure: as §1

B1: CA8 chimera antibody (human chimeric CA8) (antibody, V domains shown)
VH: EVQLQQSGAVLARPGASVKMSCKGSGYTFTNYWMHWVKQRPGQGLEWIGATYRGHSDTYYNQKFKGKAKLTAVTSTSTAYMELSSLTNEDSAVYYCTRGAIYNGYDVLDNWGQGTLVTVSS
VL: DIQLTQTTSSLSASLGDRVTISCSASQDISNYLNWYQQKPDGTVELVIYYTSNLHSGVPSRFSGSGSGTDYSLTIGYLEPEDVATYYCQQYRKLPWTFGGGSKLEIKR
notes: also called Chimera CA8; CA8 chimeric antibody
In the case of B1, the “EC50 (read off the curve)” value in test [1] and in test [2] was about 0.3 µg/mL each time. For the same molecule, the EC50 in test [3] turned out to be 0.773 µg/mL. Besides, the “IC50 (read off the curve)” value is about 0.8 µg/mL in test [4] and about 0.7 µg/mL in [9]. The dissociation constant Kd in test [5] amounted to 457 pM; in test [6], 2060 pM; in test [7], 139 pM; in test [8], 51 pM.
